Results reported in the supplement of paper PMC7877785.
± gives the uncertainty stated by the source.

Test: self-splicing fitness, log relative to wild type (ln ratio); higher = more splicing; Tetrahymena group I intron in knt gene, E. coli kanamycin selection, DiMSum; sequences stand for … in CUCUCU…GGAGGGAAAAGUUAUCAGGCAUGCACCUGGUAGCUAGUCUUUAAACCAAUAGAUUGCAUCGGUUUAAAAGGCAAGACCGUCAAAUUGCGGGAAAGGGGUCAACAGCCGUUCAGUACCAAGUCUCAGGGGAAACUUUGAGAUGGCCUUGCAAAGGGUAUGGUAAUAAGCUGACGGACAUGGUCCUAACCACGCAGCCAAGUCCUAAGUCAACAGAUCUUCUGUUGAUAUGGAUGCAGUUCACAGACUAAAUGUCGGUCGGGGAAGAUGUAUUCUUCUCAUAAGAUAUAGUCGGACCUCUCCUUAAUGGGAGCUAGCGGAUGAAGUGAUGCAACACUGGAGCCGCUGGGAACUAAUUUGUAUGCGAAAGUAUAUUGAUUAGUUUUGGAGUACUCGUGGUCG
Summary of the method: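 DiMSum derived fitness as the error-weighted combination of fold changes across replicates, kanamycin versus no kanamycin, normalised to wild type. E. coli BL21(DE3) held the library, which randomised all eight P1ex-region intron nucleotides within the knt kanamycin-resistance gene on pET-22b(+). Six replicate transformations grew overnight at 37°C or 30°C on LB agar with or without 25 μg/mL kanamycin, also containing 100 μg/mL carbenicillin, 50 μM IPTG and 0.2% rhamnose, and pooled colonies were amplicon-sequenced on an Illumina HiSeq 2500.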

Row | Sequence | self-splicing fitness (ln) (30 °C) | self-splicing fitness (ln) (37 °C)
1 | CACGAGCAAUAUUACGUGGG | -4.45 ± 0.29 | -2.71 ± 0.18
2 | UGGUAGCAAUAUUACGGUGG | -3.53 ± 0.2 | -1.94 ± 0.14
3 | GCCAAGCAAUAUUACGAUCC | -1.01 ± 0.14 | 0.392 ± 0.18
4 | GUAGAGCAAUAUUACGGCAA | -2.01 ± 0.13 | -0.535 ± 0.21
5 | GAAGAGCAAUAUUACGGGCG | -3.54 ± 0.37 | -2.84 ± 0.35
6 | UUAUAGCAAUAUUACGCCAG | -1.64 ± 0.25 | -0.566 ± 0.27
7 | AAGGAGCAAUAUUACGCAUA | -2.45 ± 0.49 | –
8 | CUCAAGCAAUAUUACGGCGU | -2.09 ± 0.23 | -2.39 ± 0.46
9 | ACACAGCAAUAUUACGCCCU | -0.215 ± 0.072 | -0.0145 ± 0.077
10 | UCGCAGCAAUAUUACGCCUA | -1.21 ± 0.13 | 0.0885 ± 0.14
11 | CUCUAGCAAUAUUACGCCUG | -2.33 ± 0.36 | –
12 | GCGCAGCAAUAUUACGAUGC | -2.63 ± 0.17 | -0.824 ± 0.17
13 | AGUCAGCAAUAUUACGGACA | 0.233 ± 0.078 | 0.157 ± 0.087
14 | GCGUAGCAAUAUUACGUUCG | -1.48 ± 0.33 | -1.52 ± 0.32
15 | UAAGAGCAAUAUUACGGGUC | – | -1.7 ± 0.41
16 | GUUAAGCAAUAUUACGACCC | – | -0.221 ± 0.44
17 | GGGGAGCAAUAUUACGUCAU | – | -2.07 ± 0.39
18 | AUGGAGCAAUAUUACGUUGG | -4.65 ± 0.39 | -2.35 ± 0.23
19 | ACGGAGCAAUAUUACGACAC | -4.35 ± 0.42 | -1.94 ± 0.37
20 | GCGUAGCAAUAUUACGCGCC | -2.51 ± 0.35 | -1.51 ± 0.45

Row | Sequence | self-splicing fitness (ln) (30 °C) | self-splicing fitness (ln) (37 °C)
21 | AACGAGCAAUAUUACGUUCG | -3 ± 0.48 | -1.19 ± 0.2
22 | UGCGAGCAAUAUUACGAUUC | -2.7 ± 0.23 | –
23 | UAUGAGCAAUAUUACGCAGG | -2.59 ± 0.26 | -2.34 ± 0.22
24 | AUUUAGCAAUAUUACGUCGC | -3.64 ± 0.26 | -2.2 ± 0.21
25 | CAGAAGCAAUAUUACGGCGC | -3.28 ± 0.32 | -1.6 ± 0.31
26 | UGGCAGCAAUAUUACGCUCG | -0.792 ± 0.083 | -0.0749 ± 0.11
27 | GUAUAGCAAUAUUACGUAAC | -1.95 ± 0.36 | -1.98 ± 0.32
28 | CAUGAGCAAUAUUACGGGAG | -1 ± 0.095 | -1.54 ± 0.13
29 | CGAAAGCAAUAUUACGAGUU | -3.72 ± 0.44 | -2.21 ± 0.23
30 | CAACAGCAAUAUUACGGUGG | -2.15 ± 0.083 | -0.724 ± 0.082
31 | UCUCAGCAAUAUUACGUAAC | -2.74 ± 0.21 | -2.2 ± 0.28
32 | UUCUAGCAAUAUUACGGCUG | -2.38 ± 0.21 | -1.6 ± 0.2
33 | CGACAGCAAUAUUACGUUUA | -1.81 ± 0.11 | -0.394 ± 0.087
34 | UUACAGCAAUAUUACGGCCA | -1.02 ± 0.12 | 0.128 ± 0.13
35 | GUUAAGCAAUAUUACGGAAC | – | -1.43 ± 0.34
36 | UUGCAGCAAUAUUACGUCAA | -1.48 ± 0.1 | -0.523 ± 0.11
37 | CAUGAGCAAUAUUACGAAAU | -2.72 ± 0.3 | -3.25 ± 0.43
38 | ACGCAGCAAUAUUACGCGGC | -3.37 ± 0.17 | -3.06 ± 0.25
39 | AAUAAGCAAUAUUACGAGCU | -0.949 ± 0.1 | -0.237 ± 0.1
40 | GAUCAGCAAUAUUACGUAAA | -0.582 ± 0.079 | 0.169 ± 0.099
